The values that follow come from the Human Domainome abundance scans (Beltran et al. 2025).

± gives the uncertainty stated by the source.

This series in a line: abundance fitness (aPCA) (normalised: wild type 0, dead -1); higher = more abundant; growth selection in yeast, the domain comes from the species named. The settings on record: Homo sapiens.
For “Scaffold attachment factor B2 S54N, Q14151”, the abundance fitness is -0.223 ± 0.12.

“Scaffold attachment factor B2 S54Q, Q14151” came in with an abundance fitness of 0.042 ± 0.1.

“Scaffold attachment factor B2 S54R, Q14151”: the abundance fitness turned out to be 0.071 ± 0.074.

Regarding “Scaffold attachment factor B2 S54T, Q14151”, the abundance fitness came out at 0.073 ± 0.11.

“Scaffold attachment factor B2 S54V, Q14151” had an abundance fitness of -0.163 ± 0.078.

In turn, “Scaffold attachment factor B2 S54W, Q14151” returned an abundance fitness of -0.261 ± 0.18.

As to “Scaffold attachment factor B2 S54Y, Q14151”, the abundance fitness was -0.358 ± 0.27.

“Scaffold attachment factor B2 T27A, Q14151” came in with an abundance fitness of -0.164 ± 0.1.

The substance “Scaffold attachment factor B2 T27C, Q14151” registered an abundance fitness of -0.112 ± 0.11.

As to “Scaffold attachment factor B2 T27D, Q14151”, the abundance fitness came to 0.024 ± 0.18.

With “Scaffold attachment factor B2 T27E, Q14151”, the abundance fitness is 0.08 ± 0.21.

In turn, “Scaffold attachment factor B2 T27G, Q14151” came in with an abundance fitness of -0.128 ± 0.094.

The substance “Scaffold attachment factor B2 T27I, Q14151” had an abundance fitness of -0.136 ± 0.19.

In turn, “Scaffold attachment factor B2 T27K, Q14151” came in with an abundance fitness of -0.658 ± 0.16.

With “Scaffold attachment factor B2 T27L, Q14151”, the abundance fitness is -0.074 ± 0.13.

In turn, “Scaffold attachment factor B2 T27M, Q14151” had an abundance fitness of -0.053 ± 0.15.

The substance “Scaffold attachment factor B2 T27Q, Q14151” came in with an abundance fitness of -0.076 ± 0.19.

“Scaffold attachment factor B2 T27R, Q14151” gave an abundance fitness of -0.275 ± 0.096.

Substance “Scaffold attachment factor B2 T27S, Q14151” gave an abundance fitness of -0.175 ± 0.13.

“Scaffold attachment factor B2 T27V, Q14151” gave an abundance fitness of -0.369 ± 0.15.

“Scaffold attachment factor B2 T27W, Q14151”: the abundance fitness was -0.514 ± 0.13.

With “Scaffold attachment factor B2 T49A, Q14151”, the abundance fitness is -0.181 ± 0.089.

Take “Scaffold attachment factor B2 T49C, Q14151”: the abundance fitness is -0.266 ± 0.12.

In the case of “Scaffold attachment factor B2 T49D, Q14151”, the abundance fitness is -0.472 ± 0.13.

“Scaffold attachment factor B2 T49E, Q14151” displayed an abundance fitness of -0.26 ± 0.094.

“Scaffold attachment factor B2 T49F, Q14151” had an abundance fitness of -0.452 ± 0.1.

With “Scaffold attachment factor B2 T49G, Q14151”, the abundance fitness is -0.509 ± 0.075.

As to “Scaffold attachment factor B2 T49H, Q14151”, the abundance fitness was -0.647 ± 0.18.

With “Scaffold attachment factor B2 T49I, Q14151”, the abundance fitness was -0.401 ± 0.2.

Take “Scaffold attachment factor B2 T49K, Q14151”: the abundance fitness was -0.788 ± 0.16.

For the substance “Scaffold attachment factor B2 T49L, Q14151”, the abundance fitness is -0.155 ± 0.089.

Regarding “Scaffold attachment factor B2 T49M, Q14151”, the abundance fitness is -0.606 ± 0.12.

Substance “Scaffold attachment factor B2 T49N, Q14151” returned an abundance fitness of -0.807 ± 0.43.

Substance “Scaffold attachment factor B2 T49P, Q14151” gave an abundance fitness of -0.349 ± 0.084.

For the substance “Scaffold attachment factor B2 T49Q, Q14151”, the abundance fitness is -0.286 ± 0.11.

In the case of “Scaffold attachment factor B2 T49R, Q14151”, the abundance fitness is -0.766 ± 0.077.

Take “Scaffold attachment factor B2 T49S, Q14151”: the abundance fitness was -0.159 ± 0.087.

Regarding “Scaffold attachment factor B2 T49V, Q14151”, the abundance fitness is -0.201 ± 0.07.

In the case of “Scaffold attachment factor B2 T49W, Q14151”, the abundance fitness is -0.365 ± 0.1.

Regarding “Scaffold attachment factor B2 T49Y, Q14151”, the abundance fitness was -0.512 ± 0.18.

The substance “Scaffold attachment factor B2 V35A, Q14151” registered an abundance fitness of -0.2 ± 0.074.

With “Scaffold attachment factor B2 V35C, Q14151”, the abundance fitness was -0.565 ± 0.12.

On to “Scaffold attachment factor B2 V35D, Q14151”, for which the abundance fitness was -0.087 ± 0.11.

For the substance “Scaffold attachment factor B2 V35E, Q14151”, the abundance fitness came to 0.129 ± 0.083.

In turn, “Scaffold attachment factor B2 V35F, Q14151” gave an abundance fitness of -0.448 ± 0.099.

Substance “Scaffold attachment factor B2 V35G, Q14151” yielded an abundance fitness of -0.351 ± 0.074.

Substance “Scaffold attachment factor B2 V35H, Q14151” had an abundance fitness of -0.57 ± 0.12.

Substance “Scaffold attachment factor B2 V35L, Q14151” displayed an abundance fitness of -0.353 ± 0.078.

As to “Scaffold attachment factor B2 V35M, Q14151”, the abundance fitness is -0.236 ± 0.12.

The substance “Scaffold attachment factor B2 V35Q, Q14151” gave an abundance fitness of -0.431 ± 0.1.

The substance “Scaffold attachment factor B2 V35R, Q14151” came in with an abundance fitness of -0.438 ± 0.067.

“Scaffold attachment factor B2 V35S, Q14151” came in with an abundance fitness of -0.184 ± 0.089.

In the case of “Scaffold attachment factor B2 V35T, Q14151”, the abundance fitness was -0.075 ± 0.084.

On to “Scaffold attachment factor B2 V35W, Q14151”, for which the abundance fitness was -0.684 ± 0.083.

For the substance “Scaffold attachment factor B2 V55A, Q14151”, the abundance fitness was -0.052 ± 0.095.

Substance “Scaffold attachment factor B2 V55C, Q14151” registered an abundance fitness of -0.294 ± 0.12.

The substance “Scaffold attachment factor B2 V55D, Q14151” showed an abundance fitness of -0.007 ± 0.1.

“Scaffold attachment factor B2 V55E, Q14151”: the abundance fitness is 0.086 ± 0.097.

Substance “Scaffold attachment factor B2 V55F, Q14151” had an abundance fitness of -0.748 ± 0.29.

Take “Scaffold attachment factor B2 V55G, Q14151”: the abundance fitness is -0.438 ± 0.076.

In the case of “Scaffold attachment factor B2 V55H, Q14151”, the abundance fitness was -0.583 ± 0.15.

“Scaffold attachment factor B2 V55I, Q14151” returned an abundance fitness of -0.668 ± 0.27.

In the case of “Scaffold attachment factor B2 V55K, Q14151”, the abundance fitness is -0.267 ± 0.094.

Consider “Scaffold attachment factor B2 V55L, Q14151”, for which the abundance fitness was -0.167 ± 0.14.

Substance “Scaffold attachment factor B2 V55M, Q14151” had an abundance fitness of -0.02 ± 0.23.

Substance “Scaffold attachment factor B2 V55P, Q14151” returned an abundance fitness of -0.643 ± 0.13.

“Scaffold attachment factor B2 V55Q, Q14151” showed an abundance fitness of -0.173 ± 0.1.

The substance “Scaffold attachment factor B2 V55R, Q14151” had an abundance fitness of -0.326 ± 0.075.

In turn, “Scaffold attachment factor B2 V55S, Q14151” displayed an abundance fitness of -0.496 ± 0.11.
